The target in experiment [1] is T1, Caspase-1 (Homo sapiens, UniProt P29466).
T1 construct: purchased BioVision
T1 sequence (P29466 120-297 limits assumed): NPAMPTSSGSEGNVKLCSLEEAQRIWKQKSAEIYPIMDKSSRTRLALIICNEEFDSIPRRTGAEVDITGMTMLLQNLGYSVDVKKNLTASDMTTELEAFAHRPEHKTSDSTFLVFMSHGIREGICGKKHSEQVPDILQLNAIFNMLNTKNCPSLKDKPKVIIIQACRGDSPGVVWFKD
T1 sequence (P29466 317-404 limits assumed): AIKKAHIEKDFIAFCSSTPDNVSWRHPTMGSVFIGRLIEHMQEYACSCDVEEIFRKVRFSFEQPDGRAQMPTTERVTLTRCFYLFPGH
As to the kind of experiment: SEPARATE assay: human peptidome library digest with Caspase-1. In kind it is biochemical. As to conditions: for Caspase1 fold change: top 20 enriched peptides, human library (90-aa tiles), normalized read counts digest vs mock digest. As to the method: (§1) Streptavidin-coupled magnetic beads (Dynabeads M-280 Streptavidin, ThermoFisher Scientific) were washed (TBS, pH 7.4, 0.01% NP40) and resuspended in binding buffer (TBS, pH 7.4, 0.001% NP40) containing 2E9 plaque forming units per 10 μl of bead slurry. End-over-end mixing at room temperature was performed for one hour. Phage-coated beads were washed three times with wash buffer and transferred into two protein LoBind Eppendorf tubes blocked with TBS, pH 7.4 containing 1% BSA.
Digestion occurred overnight at room temperature with end-over-end rotation. […] To remove any residual biotinylated phage that may have been nonspecifically released, the 150 μl supernatant of the quenched digest reaction is then incubated with a fresh 10 μl of slurry volume M280 streptavidin beads (pre-washed three times with wash buffer) in a LoBind Eppendorf tube blocked with TBS, pH 7.4 containing 1% BSA at room temperature for one hour with end-over-end rotation.
10 μl slurry volume of protein G magnetic dynabeads were washed in buffer (TBS, pH 7.4, 0.01% NP40) and then resuspended in 50 μl TBS, pH 7.4, 0.01% NP40 containing 4 μg of M2 FLAG antibody for thirty minutes at room temperature with end-over-end rotation. The 150 μl quenched digest reaction is added to the 10 μl FLAG-coated Protein G beads and incubated for 60 minutes at room temperature with end-over-end rotation to capture phage particles released at the protease digest step. Beads are rinsed once with 100 μl wash buffer and stored at −80° C. until PCR amplification.
Library PCR preparation, high-throughput DNA sequencing, and peptide read count data generation was performed as described previously.^44 Briefly, library peptide inserts are amplified by resuspending 10 μl of FLAG-coated Protein G beads in PCR1 master mix containing the T7-Pep2_PCR1_F forward primer ([…]) (SEQ ID NO:3) and a T7-SEPARATE vector specific reverse primer ([…]) (SEQ ID NO:4), which includes an adapter sequence for sample-specific barcoding and Illumina P7 adapter incorporation during a subsequent PCR2 reaction. The PCR2 amplicons are pooled and sequenced using an Illumina NextSeq instrument in standard output mode to obtain single-end 50 nucleotide reads. Dual indexed sample demultiplexing and clonal read count determination were performed using exact sequence matching. […] To calculate the normalization factor, 100 peptides were randomly selected from the mock digest conditions with a read count ranging between 10 and 40. The median read count value for these 100 peptides is calculated for each sample. The random peptide selection and median calculation is performed 20 times and the average of the 20 median values is calculated for each sample. Finally, the normalization factor is calculated by dividing the average median value for each sample by that for one of the mock digest conditions. Read counts are then converted to normalized read counts by dividing each sample's read count values by the normalization factor. Fold enrichments are calculated for each peptide by dividing their normalized read counts in the digest condition by the normalized read counts in the mock digest condition. The fold enrichments can be visualized in an MA plot by transforming the normalized read count data into a log ratio (M, on the y-axis) and a mean average (A, on the x-axis) between the digest and mock digest conditions.

The target in the next experiment is T2, endogenous Caspase-1 (Homo sapiens, UniProt P29466).
T2 construct: endogenous in cells; host or cells: PMA-differentiated THP-1 cells
T2 sequence (P29466 120-404): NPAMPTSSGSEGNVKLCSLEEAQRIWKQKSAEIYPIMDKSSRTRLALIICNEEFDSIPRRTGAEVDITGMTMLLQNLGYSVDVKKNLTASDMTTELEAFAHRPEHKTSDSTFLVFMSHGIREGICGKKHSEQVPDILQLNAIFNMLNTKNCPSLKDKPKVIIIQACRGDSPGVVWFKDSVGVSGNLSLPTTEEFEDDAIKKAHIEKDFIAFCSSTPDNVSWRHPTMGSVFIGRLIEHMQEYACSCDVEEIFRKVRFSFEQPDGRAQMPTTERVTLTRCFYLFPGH
Kind of experiment: In vitro stimulation of the inflammasome in THP-1 cells (Western blot). In kind it is cell-based. As to conditions: PMA differentiated THP-1 cells, LPS and Nigericin. As to the method: THP-1 cells were cultured in RPMI-1640 media with Glutamax (Gibco, ThermoFisher, Cat #61870127), supplemented with 10% FBS (Hyclone SH30071, GE Life Sciences), and 1× Antibiotic-Antimycotic (Gibco, ThermoFisher, Cat #15240062), referred to as complete RPMI. To differentiate THP-1 cells into macrophages, 1×10^6 THP-1 cells were added per well of a 6-well plate in complete RPMI medium containing 50 ng/ml Phorbol 12-myristate 13-acetate (PMA, diluted in RPMI medium from a 1 mg/ml PMA stock in DMSO, Millipore Sigma, Cat. No. P1585). After 48 hours when the cells become adherent, the medium with PMA was removed, cells washed in 1×PBS once, and fresh complete RPMI was added. Cells were allowed to rest for an additional 24 hours before inflammasome activation with LPS and Nigericin.
A 6-well plate of PMA differentiated THP-1 cells were treated with 0, 1 or 0.1 μg/ml LPS (Millipore Sigma, Cat. No. LPS25) for 3.5 hours. After 3.5 hours, cells were treated with 2.5 μM Nigericin for an additional 30 minutes to activate the inflammasome. Cells were washed in 1×PBS and lysed in 1× mammalian cell extraction buffer (BioVision, Cat. No. K269) containing 2 μM Dithiothreitol (DTT). Nuclei were spun down by centrifugation (10,000 rpm, 5 minutes, 4° C.) and the cleared supernatant was used to perform Western blots. […]
A general note: In western blotting, separated proteins are transferred to a membrane and probed.

In experiment [2] the target is T1, Caspase-1. As to the kind of experiment: SEPARATE assay: 56-amino acid mouse peptidome library digested with Caspase-1. The format is biochemical. As to conditions: mouse library peptides of IL-1β and Gsdmd, FIG. 8. As for the experimental part:
as §1
Digestion occurred overnight at room temperature with end-over-end rotation. […]
Library PCR preparation, high-throughput DNA sequencing, and peptide read count data generation was performed as described previously.^44 Briefly, library peptide inserts are amplified by resuspending 10 μl of FLAG-coated Protein G beads in PCR1 master mix containing the T7-Pep2_PCR1_F forward primer ([…]) (SEQ ID NO:3) and a T7-SEPARATE vector specific reverse primer ([…]) (SEQ ID NO:4), which includes an adapter sequence for sample-specific barcoding and Illumina P7 adapter incorporation during a subsequent PCR2 reaction. The PCR2 amplicons are pooled and sequenced using an Illumina NextSeq instrument in standard output mode to obtain single-end 50 nucleotide reads. Dual indexed sample demultiplexing and clonal read count determination were performed using exact sequence matching. […]

Where “and” joins values, the source holds several entries; their conditions need not be identical. Equal values may be shown once.

These results are taken from patent US12091776B2, “Protease activity profiling via programmable phage display of comprehensive proteome-scale peptide libraries” (THE JOHNS HOPKINS UNIVERSITY, priority 2019, dated 2024).

B1: HMGXB4 226-315: 90-aa human peptidome tile displayed on T7 phage (protein, UniProt Q9UGU5 226-315, looked up, fragment)
chain: KSARDEQGALLLGHELQSFLKTARKKHKSSSDAHSSPGPEGCGSDASQFAESHSANLDLSGLEPILVESDSSSGGELEAGELVIDDSYRE
modifications: displayed on T7 phage
In the experiment with Caspase-1 [1], B1 displayed a Caspase1 fold change of 16.49 fold.

B2: Gasdermin-D: well characterized human Caspase-1 substrate (protein, UniProt P57764 1-484, looked up)
Gasdermin-D: MGSAFERVVRRVVQELDHGGEFIPVTSLQSSTGFQPYCLVVRKPSSSWFWKPRYKCVNLSIKDILEPDAAEPDVQRGRSFHFYDAMDGQIQGSVELAAPGQAKIAGGAAVSDSSSTSMNVYSLSVDPNTWQTLLHERHLRQPEHKVLQQLRSRGDNVYVVTEVLQTQKEVEVTRTHKREGSGRFSLPGATCLQGEGQGHLSQKKTVTIPSGSTLAFRVAQLVIDSDLDVLLFPDKKQRTFQPPATGHKRSTSEGAWPQLPSGLSMMRCLHNFLTDGVPAEGAFTEDFQGLRAEVETISKELELLDRELCQLLLEGLEGVLRDQLALRALEEALEQGQSLGPVEPLDGPAGAVLECLVLSSGMLVPELAIPVVYLLGALTMLSETQHKLLAEALESQTLLGPLELVGSLLEQSAPWQERSTMSLPPGLLGNSWGEGAPAWVLLDECGLELGEDTPHVCWEPQAQGRMCALYASLALLSGLSQEPH
For B2, the “cleavage by endogenous Caspase-1 upon inflammasome activation (Western blot)” value in the experiment with endogenous Caspase-1 is reported as “cleaved”. In addition, the “scoring in the SEPARATE assay” value with Caspase-1 [1] (human library, Caspase-1) is “did not score”.

B3: Efs 181-270: 90-aa human peptidome tile displayed on T7 phage (protein, UniProt O43281 181-270, looked up, fragment)
chain: PGEDDAPYDVPLTPKPPAELEPDLEWEGGREPGPPIYAAPSNLKRASALLNLYEAPEELLADGEGGGTDEGIYDVPLLGPEAPPSPEPPG
modifications: displayed on T7 phage
Consider B3, for which the Caspase1 fold change with Caspase-1 [1] turned out to be 21.06 fold.

B4: LYST 1171-1260: 90-aa human peptidome tile displayed on T7 phage (protein, UniProt Q99698 1171-1260, looked up, fragment)
chain: NYSADFEHNDAMTEKSHQSAEELSSQPGDFSEEAEDSQCCSFKLLVEEEGYEADSESNPEDGETQDDGVDLKSETEGFSASSSPNDLLEN
modifications: displayed on T7 phage
The molecule B4 returned a Caspase1 fold change in the experiment with Caspase-1 [1] of 21.04 fold.

B5: UHRF1BP1L 991-1080: 90-aa human peptidome tile displayed on T7 phage (protein, UniProt A0JNW5 991-1080, looked up, fragment)
chain: EIGSETSDKKDSFYTDSSSILNYREDSNILSFDSDGNQNILSSTLTSKGNETIESIFKAEDLLPEAASLSENLDISKEETPPVRTLKSQS
modifications: displayed on T7 phage
Turning to B5, the Caspase1 fold change with Caspase-1 [1] came out at 16.39 fold.

B6: IL-1β: mouse IL-1β (SEQ ID NO:73); library peptides containing Caspase-1 cleavage sites D26 and D117 (protein, UniProt P10749 118-269, looked up)
Interleukin-1 beta: VPIRQLHYRLRDEQQKSLVLSDPYELKALHLNGQNINQQVIFSMSFVQGEPSNDKIPVALGLKGKNLYLSCVMKDGTPTLQLESVDPKQYPKKKMEKRFVFNKIEVKSKVEFESAEFPNWYISTSQAEHKPVFLGNNSGQDIIDFTMESVSS
Consider B6, for which, in the experiment with Caspase-1 [2], the Fold enrichments is 7.5 fold and 13 fold and 9 fold.

B7: ANAPC1 1-90: 90-aa human peptidome tile displayed on T7 phage (protein, UniProt Q9H1A4 1-90, looked up, fragment)
chain: MSNFYEERTTMIAARDLQEFVPFGRDHCKHHPNALNLQLRQLQPASELWSSDGAAGLVGSLQEVTIHEKQKESWQLRKGVSEIGEDVDYD
modifications: displayed on T7 phage
Consider B7, for which the Caspase1 fold change in the experiment with Caspase-1 [1] is listed as 16.35 fold.

B8: HUWE1 2296-2485: 90-aa human peptidome tile of HUWE1 displayed on T7 phage; position as printed (protein, UniProt Q7Z6Z7 2296-2485, looked up, fragment)
chain: PGEAEVQEEDHDVTQTEVADGDIMDGEAETDSVVIAGQPEVLSSQEMQVENELEDLIDELLERDGGSGNSTIIVSRSGEDESQEDVLMDEAPSNLSQASTLQANREDSMNILDPEDEEEHTQEEDSSGSNEDEDDSQDEEEEEEEDEEDDQEDDEGEEGDEDDDDDGSEMELDEDYPDMNASPLVRFERF
modifications: T7 phage display
notes: position as printed
On to B8, for which, in the experiment with Caspase-1 [1], the Caspase1 fold change is on record as 22.71 fold.
